{"source": "IntAct's records for PubMed 29892012", "parents": {"B1": {"name": "Liprin-alpha-1 (Homo sapiens), Q13136 (parent)", "chain": "MMCEVMPTISEAEGPPGGGGGHGSGSPSQPDADSHFEQLMVSMLEERDRLLDTLRETQETLALTQGKLHEVGHERDSLQRQLNTALPQEFAALTKELNVCREQLLEREEEIAELKAERNNTRLLLEHLECLVSRHERSLRMTVVKRQAQSPAGVSSEVEVLKALKSLFEHHKALDEKVRERLRVALERCSLLEEELGATHKELMILKEQNNQKKTLTDGVLDINHEQENTPSTSGKRSSDGSLSHEEDLAKVIELQEIISKQSREQSQMKERLASLSSHVTELEEDLDTARKDLIKSEEMNTKLQRDVREAMAQKEDMEERITTLEKRYLAAQREATSVHDLNDKLENEIANKDSMHRQTEDKNRQLQERLELAEQKLQQTLRKAETLPEVEAELAQRVAALSKAEERHGNIEERLRQMEAQLEEKNQELQRARQREKMNEEHNKRLSDTVDKLLSESNERLQLHLKERMAALEDKNSLLREVESAKKQLEETQHDKDQLVLNIEALRAELDHMRLRGASLHHGRPHLGSVPDFRFPMADGHTDSYSTSAVLRRPQKGRLAALRDEPSKVQTLNEQDWERAQQASVLANVAQAFESDADVSDGEDDRDTLLSSVDLLSPSGQADAHTLAMMLQEQLDAINKEIRLIQEEKENTEQRAEEIESRVGSGSLDNLGRFRSMSSIPPYPASSLASSSPPGSGRSTPRRIPHSPAREVDRLGVMTLLPPSREEVRDDKTTIKCETSPPSSPRALRLDRLHKGALHTVSHEDIRDIRNSTGSQDGPVSNPSSSNSSQDSLHKAPKKKGIKSSIGRLFGKKEKGRPGQTGKEALGQAGVSETDNSSQDALGLSKLGGQAEKNRKLQKKHELLEEARRQGLPFAQWDGPTVVVWLELWVGMPAWYVAACRANVKSGAIMSALSDTEIQREIGISNPLHRLKLRLAIQEIMSLTSPSAPPTSRTTLAYGDMNHEWIGNEWLPSLGLPQYRSYFMECLVDARMLDHLTKKDLRGQLKMVDSFHRNSFQCGIMCLRRLNYDRKELERKREESQSEIKDVLVWSNDRVIRWILSIGLKEYANNLIESGVHGALLALDETFDFSALALLLQIPTQNTQARAVLEREFNNLLVMGTDRRFDEDDDKSFRRAPSWRKKFRPKDIRGLAAGSAETLPANFRVTSSMSSPSMQPKKMQMDGNVSGTQRLDSATVRTYSC", "partner": "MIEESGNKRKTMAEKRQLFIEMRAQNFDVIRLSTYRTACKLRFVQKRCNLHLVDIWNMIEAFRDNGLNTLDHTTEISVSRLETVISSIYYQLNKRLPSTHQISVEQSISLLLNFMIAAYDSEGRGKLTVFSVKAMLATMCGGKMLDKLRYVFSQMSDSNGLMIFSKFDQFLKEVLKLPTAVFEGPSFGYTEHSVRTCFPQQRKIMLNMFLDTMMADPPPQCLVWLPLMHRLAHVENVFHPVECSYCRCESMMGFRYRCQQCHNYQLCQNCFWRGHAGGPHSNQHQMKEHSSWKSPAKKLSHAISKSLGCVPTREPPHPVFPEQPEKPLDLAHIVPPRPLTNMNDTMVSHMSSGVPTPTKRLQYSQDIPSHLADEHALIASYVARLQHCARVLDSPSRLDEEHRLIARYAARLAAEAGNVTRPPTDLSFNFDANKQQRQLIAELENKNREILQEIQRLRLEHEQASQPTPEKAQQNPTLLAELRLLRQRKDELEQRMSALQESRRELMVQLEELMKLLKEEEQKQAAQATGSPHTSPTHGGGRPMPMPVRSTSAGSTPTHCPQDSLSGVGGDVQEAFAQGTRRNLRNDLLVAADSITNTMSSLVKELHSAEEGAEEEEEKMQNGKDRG"}, "B2": {"name": "Coiled-coil domain-containing protein 120 (Homo sapiens), Q96HB5-4 (parent)", "chain": "MRREPRYQGQVGPDIHTDSERTLSSHQPRPLDSTKMEVKGQLISSPTFNAPAALFGEAAPQVKSERLRGLLDRQRTLQEALSLKLQELRKVCLQEAELTGQLPPECPLEPGERPQLVRRRPPTARAYPPPHPNQAHHSLCPAEELALEALEREVSVQQQIAAAARRLALAPDLSTEQRRRRRQVQADALRRLHELEEQLRDVRARLGLPVLPLPQPLPLSTGSVITTQGVCLGMRLAQLSQEDVVLHSESSSLSESGASHDNEEPHGCFSLAERPSPPKAWDQLRAVSGGSPERRTPWKPPPSDLYGDLKSRRNSVASPTSPTRSLPRSASSFEGRSVPATPVLTRGAGPQLCKPEGLHSRQWSGSQDSQMGFPRADPASDRASLFVARTRRSNSSEALLVDRAAGGGAGSPPAPLAPSASGPPVCKSSEVLYERPQPTPAFSSRTAGPPDPPRAARPSSAAPASRGAPRLPPVCGDFLLDYSLDRGLPRSGGGTGWGELPPAAEVPGPLSRRDGLLTMLPGPPPVYAADSNSPLLRTKDPHTRATRTKPCGLPPEAAEGPEVHPNPLLWMPPPTRIPSAGERSGHKNLALEGLRDWYIRNSGLAAGPQRRPVLPSVGPPHPPFLHARCYEVGQALYGAPSQAPLPHSRSFTAPPVSGRYYADFLYPPELSARLSDLTLEGEQSSSSDTQTPGTLV", "partner": "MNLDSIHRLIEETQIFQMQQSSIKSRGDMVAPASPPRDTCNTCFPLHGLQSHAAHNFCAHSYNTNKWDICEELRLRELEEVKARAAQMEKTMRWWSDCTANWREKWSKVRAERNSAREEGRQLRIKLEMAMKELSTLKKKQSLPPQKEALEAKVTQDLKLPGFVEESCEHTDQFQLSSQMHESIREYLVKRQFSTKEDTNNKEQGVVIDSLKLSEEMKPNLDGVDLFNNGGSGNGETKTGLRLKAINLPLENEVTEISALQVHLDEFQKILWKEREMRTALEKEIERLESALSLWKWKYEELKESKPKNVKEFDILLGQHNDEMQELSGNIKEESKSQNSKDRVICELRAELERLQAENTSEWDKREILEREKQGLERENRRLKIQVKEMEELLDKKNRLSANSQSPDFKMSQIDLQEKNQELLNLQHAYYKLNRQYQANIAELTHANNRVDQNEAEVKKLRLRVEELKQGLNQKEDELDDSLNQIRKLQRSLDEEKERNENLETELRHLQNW"}, "B3": {"name": "Keratin, type I cuticular Ha8 (Homo sapiens), O76015 (parent)", "chain": "MTSSYSSSSCPLGCTMAPGARNVSVSPIDIGCQPGAEANIAPMCLLANVAHANRVRVGSTPLGRPSLCLPPTCHTACPLPGTCHIPGNIGICGAYGENTLNGHEKETMQFLNDRLANYLEKVRQLEQENAELEATLLERSKCHESTVCPDYQSYFHTIEELQQKILCSKAENARLIVQIDNAKLAADDFRIKLESERSLRQLVEADKCGTQKLLDDATLAKADLEAQQESLKEEQLSLKSNHEQEVKILRSQLGEKLRIELDIEPTIDLNRVLGEMRAQYEAMLETNRQDVEQWFQAQSEGISLQDMSCSEELQCCQSEILELRCTVNALEVERQAQHTLKDCLQNSLCEAEDRFGTELAQMQSLISNVEEQLSEIRADLERQNQEYQVLLDVKTRLENEIATYRNLLESEDCKLPCNPCSTSPSCVTAPCAPRPSCGPCTTCGPTCGASTTGSRF"}}}
{"variants_of": "B1", "settings": "with dtnb_human DTNB"}
{"variant": "P389L", "effect of a mutation on the interaction": "with no effect"}
{"variants_of": "B1", "settings": "with dtnb_human DTNB", "remark": "another data set of the same source"}
{"variant": "L330F", "effect of a mutation on the interaction": "with no effect"}
{"variants_of": "B2", "settings": "with CCDC102B"}
{"variant": "R346W", "effect of a mutation on the interaction": "with no effect"}
{"variants_of": "B3", "settings": "with k22e_human KRT2, P35908"}
{"variant": "D306A", "effect of a mutation on the interaction": "with no effect"}
{"variants_of": "B3", "settings": "with txnd5_human TXNDC5, Q8NBS9"}
{"variant": "D306A", "effect of a mutation on the interaction": "with no effect"}
{"variants_of": "B3", "settings": "with prs8_human PSMC5, P62195"}
{"variant": "D306A", "effect of a mutation on the interaction": "with no effect"}
{"variants_of": "B3", "settings": "with p85b_human PIK3R2, O00459"}
{"variant": "D306A", "effect of a mutation on the interaction": "with no effect"}
{"variants_of": "B3", "settings": "with KRT6A"}
{"variant": "D306A", "effect of a mutation on the interaction": "with no effect"}
{"variants_of": "B3", "settings": "with k2c4_human KRT4, P19013"}
{"variant": "D306A", "effect of a mutation on the interaction": "with no effect"}
{"variants_of": "B3", "settings": "with txlnb_human TXLNB"}
{"variant": "D306A", "effect of a mutation on the interaction": "with no effect"}
{"variants_of": "B3", "settings": "with KRT79, Q5XKE5"}
{"variant": "D306A", "effect of a mutation on the interaction": "with no effect"}
{"variants_of": "B3", "settings": "with txlna_human TXLNA"}
{"variant": "D306A", "effect of a mutation on the interaction": "with no effect"}
